Earlier results, collected in US10920265B2, “Compounds and methods for detection of enzymes that remove methyl succinyl groups from epsilon-amino lysine moieties” (Enzo Life Sciences, Inc., priority 2011, dated 2021).
No end group written: not given here.

Legend:
Conditions in all cases: varied NAD^+, Du et al., 2009; cited from earlier work
SIRT1 = biological target: T1, SIRT1 (Homo sapiens, UniProt Q96EB6)
T1 construct: purchased ENZO Life Sciences BML-SE239
T1 sequence (Q96EB6 1-747): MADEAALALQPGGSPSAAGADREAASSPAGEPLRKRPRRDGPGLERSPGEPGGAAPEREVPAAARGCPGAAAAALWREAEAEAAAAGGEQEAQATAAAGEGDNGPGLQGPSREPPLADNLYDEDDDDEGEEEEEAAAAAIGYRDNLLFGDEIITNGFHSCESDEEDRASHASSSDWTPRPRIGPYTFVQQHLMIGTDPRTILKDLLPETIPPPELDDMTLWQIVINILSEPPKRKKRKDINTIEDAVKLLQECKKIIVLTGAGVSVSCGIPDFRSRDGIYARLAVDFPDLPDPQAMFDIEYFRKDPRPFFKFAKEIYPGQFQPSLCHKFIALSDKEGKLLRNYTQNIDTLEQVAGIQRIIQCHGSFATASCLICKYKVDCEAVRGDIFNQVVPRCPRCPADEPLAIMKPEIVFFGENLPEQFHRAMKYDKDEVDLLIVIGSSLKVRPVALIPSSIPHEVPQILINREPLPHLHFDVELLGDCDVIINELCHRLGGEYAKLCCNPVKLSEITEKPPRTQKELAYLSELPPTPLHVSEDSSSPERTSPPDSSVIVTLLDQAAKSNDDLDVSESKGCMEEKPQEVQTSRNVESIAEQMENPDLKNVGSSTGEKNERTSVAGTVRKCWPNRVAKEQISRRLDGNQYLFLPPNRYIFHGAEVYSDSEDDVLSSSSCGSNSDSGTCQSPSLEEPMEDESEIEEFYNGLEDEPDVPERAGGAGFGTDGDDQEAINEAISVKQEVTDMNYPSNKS

SIRT2 = biological target: T2, SIRT2 (Homo sapiens, UniProt Q8IXJ6)
T2 sequence (Q8IXJ6 1-389): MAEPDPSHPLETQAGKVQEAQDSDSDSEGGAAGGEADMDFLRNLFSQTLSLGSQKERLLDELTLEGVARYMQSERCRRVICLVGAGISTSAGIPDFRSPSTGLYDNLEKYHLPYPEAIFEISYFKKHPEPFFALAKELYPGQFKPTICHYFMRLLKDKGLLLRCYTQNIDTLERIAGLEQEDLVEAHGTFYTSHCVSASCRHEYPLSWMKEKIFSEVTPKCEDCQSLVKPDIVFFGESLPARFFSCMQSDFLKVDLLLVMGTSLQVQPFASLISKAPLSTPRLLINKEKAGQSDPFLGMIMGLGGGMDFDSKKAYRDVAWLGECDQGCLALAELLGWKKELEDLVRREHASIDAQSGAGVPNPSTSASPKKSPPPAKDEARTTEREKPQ

SIRT3 = biological target: T3, SIRT3 (Homo sapiens, UniProt Q9NTG7)
T3 construct: purchased ENZO Life Sciences BML-SE270
T3 sequence (Q9NTG7 1-399): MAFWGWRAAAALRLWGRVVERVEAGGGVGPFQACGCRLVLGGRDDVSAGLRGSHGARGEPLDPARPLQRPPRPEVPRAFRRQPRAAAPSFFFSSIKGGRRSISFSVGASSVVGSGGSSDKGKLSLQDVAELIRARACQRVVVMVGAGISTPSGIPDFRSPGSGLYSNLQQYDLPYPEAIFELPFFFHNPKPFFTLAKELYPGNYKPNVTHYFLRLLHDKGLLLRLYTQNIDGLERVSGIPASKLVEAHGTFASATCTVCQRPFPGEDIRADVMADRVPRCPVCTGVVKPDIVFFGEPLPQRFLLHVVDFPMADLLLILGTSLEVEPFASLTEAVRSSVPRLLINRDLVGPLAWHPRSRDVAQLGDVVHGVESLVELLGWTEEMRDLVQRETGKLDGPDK

SIRT5 = biological target: T4, SIRT5 (Homo sapiens, UniProt Q9NXA8); set-up: purchased Enzo Life Sciences BML-SE555
T4 sequence (Q9NXA8 37-310): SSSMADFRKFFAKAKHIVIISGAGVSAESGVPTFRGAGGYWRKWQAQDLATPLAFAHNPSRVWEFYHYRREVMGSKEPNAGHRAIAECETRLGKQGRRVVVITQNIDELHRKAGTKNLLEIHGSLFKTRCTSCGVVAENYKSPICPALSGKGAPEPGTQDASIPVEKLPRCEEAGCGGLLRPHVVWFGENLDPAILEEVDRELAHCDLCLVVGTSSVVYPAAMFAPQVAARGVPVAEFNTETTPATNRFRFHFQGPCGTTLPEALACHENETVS

Hist. H3 4-15, K9Ac: unlabeled peptide, histone H3 residues 4-15 acetylated on lysine-9 (KQTARK(Ac)STGGKA; UniProt P68431 5-16, looked up, fragment)
kcat (SIRT1): 0.079 s⁻¹ | kcat (SIRT2): 0.021 s⁻¹ | kcat (SIRT3): 0.009 s⁻¹ | kcat (SIRT5): 0.003 s⁻¹
